Earlier results on four substances are cited in PMC8773757.

For one data set, the target named is p300/CBP (Homo sapiens) (UniProt Q09472).
The target of data set [1] is HIF-1α PAS-B (Homo sapiens) (UniProt Q16665).
A further data set concerns the target CDC37 (Homo sapiens) (UniProt Q16543).
Data set [2] has as its target thymidylate synthase (Homo sapiens) (UniProt P04818).

Chain of HIF-1α (Q16665 whole entry): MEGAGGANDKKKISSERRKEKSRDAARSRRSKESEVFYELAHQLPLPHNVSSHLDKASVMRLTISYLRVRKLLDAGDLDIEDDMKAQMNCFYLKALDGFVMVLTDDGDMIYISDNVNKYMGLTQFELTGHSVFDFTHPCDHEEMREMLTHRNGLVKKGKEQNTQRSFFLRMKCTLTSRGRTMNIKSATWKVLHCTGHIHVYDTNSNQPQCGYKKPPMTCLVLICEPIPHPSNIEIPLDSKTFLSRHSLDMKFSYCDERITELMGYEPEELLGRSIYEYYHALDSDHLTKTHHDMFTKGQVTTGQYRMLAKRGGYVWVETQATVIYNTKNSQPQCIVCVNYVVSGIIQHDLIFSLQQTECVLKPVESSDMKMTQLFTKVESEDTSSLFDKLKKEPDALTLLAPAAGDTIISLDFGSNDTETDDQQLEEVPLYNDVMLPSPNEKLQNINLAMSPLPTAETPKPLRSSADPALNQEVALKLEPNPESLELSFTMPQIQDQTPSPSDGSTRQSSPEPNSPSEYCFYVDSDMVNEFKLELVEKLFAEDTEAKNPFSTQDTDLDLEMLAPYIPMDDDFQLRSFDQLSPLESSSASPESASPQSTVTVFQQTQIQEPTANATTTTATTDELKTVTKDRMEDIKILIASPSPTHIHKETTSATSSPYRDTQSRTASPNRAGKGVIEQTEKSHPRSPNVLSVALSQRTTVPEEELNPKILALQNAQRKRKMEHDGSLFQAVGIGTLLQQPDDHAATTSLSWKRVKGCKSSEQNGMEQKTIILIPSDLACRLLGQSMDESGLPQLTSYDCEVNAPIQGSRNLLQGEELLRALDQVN
Chain of UniProt Q16543 (Q16543 2-378): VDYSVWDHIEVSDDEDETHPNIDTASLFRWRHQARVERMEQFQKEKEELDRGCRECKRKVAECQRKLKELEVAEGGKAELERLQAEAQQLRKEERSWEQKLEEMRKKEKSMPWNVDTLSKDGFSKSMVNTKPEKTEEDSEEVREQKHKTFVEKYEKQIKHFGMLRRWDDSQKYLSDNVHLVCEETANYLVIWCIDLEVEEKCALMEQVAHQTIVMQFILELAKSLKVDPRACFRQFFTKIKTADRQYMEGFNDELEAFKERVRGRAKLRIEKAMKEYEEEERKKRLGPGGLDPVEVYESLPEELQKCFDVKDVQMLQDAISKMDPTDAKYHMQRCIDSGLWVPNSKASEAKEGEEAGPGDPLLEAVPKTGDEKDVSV
Chain of UniProt Q09472 (Q09472 2-2414): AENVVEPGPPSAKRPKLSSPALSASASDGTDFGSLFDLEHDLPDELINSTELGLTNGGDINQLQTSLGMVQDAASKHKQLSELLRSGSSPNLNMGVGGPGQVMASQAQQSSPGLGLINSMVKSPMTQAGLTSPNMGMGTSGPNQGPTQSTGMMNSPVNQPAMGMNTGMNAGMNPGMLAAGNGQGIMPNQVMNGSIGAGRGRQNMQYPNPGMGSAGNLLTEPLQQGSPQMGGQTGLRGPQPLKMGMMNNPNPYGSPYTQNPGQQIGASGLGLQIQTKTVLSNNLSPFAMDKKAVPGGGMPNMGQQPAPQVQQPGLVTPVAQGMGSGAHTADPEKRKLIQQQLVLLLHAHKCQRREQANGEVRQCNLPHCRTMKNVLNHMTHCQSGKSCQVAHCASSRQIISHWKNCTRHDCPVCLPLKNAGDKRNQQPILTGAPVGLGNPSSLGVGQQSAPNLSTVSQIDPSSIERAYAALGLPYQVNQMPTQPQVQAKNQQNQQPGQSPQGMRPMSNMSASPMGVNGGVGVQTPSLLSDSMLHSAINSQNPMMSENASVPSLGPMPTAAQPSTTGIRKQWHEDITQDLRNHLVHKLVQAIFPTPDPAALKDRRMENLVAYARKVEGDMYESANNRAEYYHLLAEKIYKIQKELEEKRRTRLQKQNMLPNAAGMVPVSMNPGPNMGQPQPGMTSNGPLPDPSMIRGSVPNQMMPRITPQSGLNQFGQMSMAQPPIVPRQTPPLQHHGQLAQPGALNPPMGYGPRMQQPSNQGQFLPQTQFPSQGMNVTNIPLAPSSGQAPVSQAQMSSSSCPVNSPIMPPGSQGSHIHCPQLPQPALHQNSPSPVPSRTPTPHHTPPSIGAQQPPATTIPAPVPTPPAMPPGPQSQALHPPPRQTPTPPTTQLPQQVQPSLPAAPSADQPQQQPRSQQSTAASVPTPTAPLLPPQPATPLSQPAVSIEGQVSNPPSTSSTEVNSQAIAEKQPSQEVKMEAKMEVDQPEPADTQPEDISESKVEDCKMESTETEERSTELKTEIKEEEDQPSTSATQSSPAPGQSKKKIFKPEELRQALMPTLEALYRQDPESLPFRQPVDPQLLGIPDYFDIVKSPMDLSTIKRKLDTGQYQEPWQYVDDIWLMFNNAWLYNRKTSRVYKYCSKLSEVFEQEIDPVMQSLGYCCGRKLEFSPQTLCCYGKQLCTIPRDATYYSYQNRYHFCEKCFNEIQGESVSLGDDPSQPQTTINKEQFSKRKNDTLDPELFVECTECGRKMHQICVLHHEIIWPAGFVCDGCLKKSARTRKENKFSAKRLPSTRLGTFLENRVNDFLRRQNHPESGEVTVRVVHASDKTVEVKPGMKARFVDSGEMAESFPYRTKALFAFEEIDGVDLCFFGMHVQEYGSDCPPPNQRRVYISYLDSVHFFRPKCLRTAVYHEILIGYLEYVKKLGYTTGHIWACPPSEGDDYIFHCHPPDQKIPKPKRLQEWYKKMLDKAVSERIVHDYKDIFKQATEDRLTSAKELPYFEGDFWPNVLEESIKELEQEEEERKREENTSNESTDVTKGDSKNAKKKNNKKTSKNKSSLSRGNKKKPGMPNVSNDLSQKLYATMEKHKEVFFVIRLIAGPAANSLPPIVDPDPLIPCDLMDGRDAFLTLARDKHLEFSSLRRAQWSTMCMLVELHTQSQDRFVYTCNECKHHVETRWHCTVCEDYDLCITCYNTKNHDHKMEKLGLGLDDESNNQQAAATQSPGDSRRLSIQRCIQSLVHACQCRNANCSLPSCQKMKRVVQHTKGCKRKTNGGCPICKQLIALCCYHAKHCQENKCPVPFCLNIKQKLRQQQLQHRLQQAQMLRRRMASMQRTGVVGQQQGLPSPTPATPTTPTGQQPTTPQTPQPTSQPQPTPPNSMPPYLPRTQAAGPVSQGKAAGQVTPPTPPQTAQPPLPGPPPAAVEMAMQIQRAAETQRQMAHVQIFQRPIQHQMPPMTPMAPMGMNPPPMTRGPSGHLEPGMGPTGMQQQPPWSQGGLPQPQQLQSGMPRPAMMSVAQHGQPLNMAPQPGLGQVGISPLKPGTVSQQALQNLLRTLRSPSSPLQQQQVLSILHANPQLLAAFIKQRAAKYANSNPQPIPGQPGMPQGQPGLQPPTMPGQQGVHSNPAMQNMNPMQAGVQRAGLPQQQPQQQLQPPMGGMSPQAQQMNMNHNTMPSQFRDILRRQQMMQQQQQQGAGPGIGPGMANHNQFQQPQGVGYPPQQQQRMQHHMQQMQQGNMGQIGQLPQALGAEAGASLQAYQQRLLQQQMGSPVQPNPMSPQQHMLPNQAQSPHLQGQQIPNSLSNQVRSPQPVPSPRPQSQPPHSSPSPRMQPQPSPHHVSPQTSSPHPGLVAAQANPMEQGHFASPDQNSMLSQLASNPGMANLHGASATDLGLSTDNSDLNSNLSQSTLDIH

As for HIF-1α (from UniProt Q16665), the Kd with p300/CBP (Homo sapiens) is 7 nM.
As for cyclo-CLLFVY, in data set [1], the Kd was 124 nM.
Consider HSP90 (from UniProt P07900), for which the Kd with CDC37 (Homo sapiens) was 100000 nM.
Regarding “thymidylate synthase (from UniProt P04818)”, in data set [2], the Kd was 200 nM.

The term Kd denotes a measure of binding affinity in units of concentration.
